From patent publication US20230192818A1

Molecular target: biotinylated SARS-CoV-2 S1 variant B.1.351 (Example 5) (SARS-CoV-2) (UniProt P0DTC2)
Test: phage ELISA screening

B1: 12-9 (antibody, V domains shown)
VH: QVQLVESGGGVVQPGRSLRLSCAASGFTFSSYGMHWVRQAPGKGLEWVAVISYDGTTEYYADSVKGRFTISRDNSKNTLYLQMNSLRAEDTAVYYCARPSSGSYLGFFDYWGQGTLVTVSS
VL: EIVLTQSPATLSLSPGERATLSCRASQSVSTSLAWYQQKPGQAPRLLIYDATNRATGIPARFSGSGSGTDFTLTISSLEPEDFAVYYCQRRTDWPPTFGGGTKVEIK
ELISA: 19.9

B2: 12-36 (antibody, V domains shown)
VH: QVQLVESGGGVVQPGRSLRLSCAASGFSFNNYGMHWVRQAPGKGLEWVAVISYDGSNDYYADSVKGRFTISRDNSKNTLYLQMNSLRAEDTAVYYCARPNSGSYSNYFDYWGQGTLVTVSS
VL: EIVLTQSPATLSLSPGERATLSCRASQGISTYLAWYQQKPGQAPRLLIYDASNRATGIPARFSGSGSGTDFTLTISSLEPEDFAVYYCQQRRRWPPTFGGGTKVEIK
ELISA: 5.51

B3: 12-13 (antibody, V domains shown)
VH: QVQLVESGGGVVQPGRSLRLSCAASGFSFSTYGMHWVRQAPGKGLEWVAVISYDGSNKYYADSVKGRFTISRDNSKNTLYLQMNSLRAEDTAVYYCARPLSGSYWSWFDPWGQGTLVTVSS
VL: EIVLTQSPATLSLSPGERATLSCRASQSVGSYLAWYQQKPGQAPRLLIYDAVNRATGIPARFSGSGSGTDFTLTISSLEPEDFAVYYCQQRNSWPPATFGGGTKVEIK
ELISA: 18.1

B4: 12-15 (antibody, V domains shown)
VH: QVQLVESGGGVVQPGRSLRLSCAASGFSFGGYGMHWVRQAPGKGLEWVAVISYDGSNKYYADSVKGRFTISRDNSKNTLYLQMNSLRAEDTAVYYCARPYSGSYISWFDYWGQGTLVTVSS
VL: EIVLTQSPATLSLSPGERATLSCRASQSVSSHLAWYQQKPGQAPRLLIYDVSNRATGIPARFSGSGSGTDFTLTISSLEPEDFAVYYCQVRSDWPPLTFGGGTKVEIK
ELISA: 17.6

B5: 12-11 (antibody, V domains shown)
VH: QVQLVESGGGVVQPGRSLRLSCAASGFSFGGYGMHWVRQAPGKGLEWVAVISYDGSNEYYADSVKGRFTISRDNSKNTLYLQMNSLRAEDTAVYYCAKSYSGSYSSYFDYWGQGTLVTVSS
VL: EIVLTQSPATLSLSPGERATLSCRASQSVGSYLAWYQQKPGQAPRLLIYDAVNRATGIPARFSGSGSGTDFTLTISSLEPEDFAVYYCQQRFTWPTTFGGGTKVEIK
ELISA: 18.8

B6: 12-17 (antibody, V domains shown)
VH: QVQLVESGGGVVQPGRSLRLSCAASGFTFGSYGMHWVRQAPGKGLEWVAVISYDGNHEYYADSVKGRFTISRDNSKNTLYLQMNSLRAEDTAVYYCARPHSGSYTAYFDYWGQGTLVTVSS
VL: EIVLTQSPATLSLSPGERATLSCRASQSVSKFLAWYQQKPGQAPRLLIYDASNRATGIPARFSGSGSGTDFTLTISSLEPEDFAVYYCHQHSDWPLTFGGGTKVEIK
ELISA: 16.2

B7: 12-22 (antibody, V domains shown)
VH: QVQLVESGGGVVQPGRSLRLSCAASGFTFSSYGMHWVRQAPGKGLEWVAVISYDGNHEYYADSVKGRFTISRDNSKNTLYLQMNSLRAEDTAVYYCARPKSGSYVSYFDYWGQGTLVTVSS
VL: EIVLTQSPATLSLSPGERATLSCRASQSVRHHLAWYQQKPGQAPRLLIYDASNRATGIPARFSGSGSGTDFTLTISSLEPEDFAVYYCQERSDWPITFGGGTKVEIK
ELISA: 10.5

B8: 12-34 (antibody, V domains shown)
VH: QVQLVESGGGVVQPGRSLRLSCAASGFIFRSYAMHWVRQAPGKGLEWVAVISYDGSSKYYADSVKGRFTISRDNSKNTLYLQMNSLRAEDTAVYYCARPSGGSYFDPFDYWGQGTLVTVSS
VL: EIVLTQSPATLSLSPGERATLSCRASQSVGNFLAWYQQKPGQAPRLLIYDASNRATGIPARFSGSGSGTDFTLTISSLEPEDFAVYYCQHRRLLTFGGGTKVEIK
ELISA: 5.81

B9: 12-28 (antibody, V domains shown)
VH: QVQLVESGGGVVQPGRSLRLSCAASGFTFSSYAMHWVRQAPGKGLEWVAVISYDGTNEYYADSEKGRFTISRDNSKNTLYLQMNSLRAEDTAVYYCARAHGGSYFSGMDVWGQGTLVTVSS
VL: EIVLTQSPATLSLSPGERATLSCRASQSVRHHLAWYQQKPGQAPRLLIYDASNRATGIPARFSGSGSGTDFTLTISSLEPEDFAVYYCQQSGSWPLTFGGGTKVEIK
ELISA: 8.63

B10: 12-39 (antibody, V domains shown)
VH: QVQLVESGGGVVQPGRSLRLSCAASGFTFSSYAMHWVRQAPGKGLEWVAVISYDGNHEYYADSVKGRFTISRDNSKNTLYLQMNSLRAEDTAVYYCARAHSGSYFSHFDYWGQGTLVTVSS
VL: EIVLTQSPATLSLSPGERATLSCRASESISTYLAWYQQKPGQAPRLLIYDASNRATGIPARFSGSGSGTDFTLTISSLEPEDLAVYYCQQRRNSLTFGGGTKVEIK
ELISA: 5.09

B11: 12-10 (antibody, V domains shown)
VH: QVQLVESGGGVVQPGRSLRLSCAASGFIFRSYAMHWVRQAPGKGLEWVAVISYDGSIKYYADSVKGRFTISRDNSKNTLYLQMNSLRAEDTAVYYCARTRGGSYYGAFDYWGQGTLVTVSS
VL: EIVLTQSPATLSLSPGERATLSCRASQSVNSDLAWYQQKPGQAPRLLIYDASNRATGIPARFSGSGSGTDFTLTISSLEPEDFAVYYCQQRTDWPPATFGGGTKVEIK
ELISA: 19.7

B12: 12-19 (antibody, V domains shown)
VH: QVQLVESGGGVVQPGRSLRLSCAASGFAFSSYAMHWVRQAPGKGLEWVAVISYDGTYEYYADSVKGRFTISRDNSKNTLYLQMNSLRAEDTAVYYCARSLGGSYFSGMDVWGQGTLVTVSS
VL: EIVLTQSPATLSLSPGERATLSCRASQSISRYLAWYQQKPGQAPRLLIYDVSNRATGIPARFSGSGSGTDFTLTISSLEPEDFAVYYCQQSSNWPLFTFGGGTKVEIK
ELISA: 13.8

B13: 12-20 (antibody, V domains shown)
VH: QVQLVESGGGVVQPGRSLRLSCAASGFSFGGYGMHWVRQAPGKGLEWVAVISYDGSNKYYADSVKGRFTISRDNSKNTLYLQMNSLRAEDTAVYYCARSKGGSYYGPFDYWGQGTLVTVSS
VL: EIVLTQSPATLSLSPGERATLSCRASQSLGNYLAWYQQKPGQAPRLLIYDSSNRATGIPARFSGSGSGTDFTLTISSLEPEDFAVYYCQQRNTWPGVTFGGGTKVEIK
ELISA: 13.3

B14: 12-29 (antibody, V domains shown)
VH: QVQLVESGGGVVQPGRSLRLSCAASGFSFSNYGMHWVRQAPGKGLEWVAVISYDGNNKYYADSVKGRFTISRDNSKNTLYLQMNSLRAEDTAVYYCARSKGGSYYGPFDDWGQGTLVTVSS
VL: EIVLTQSPATLSLSPGERATLSCRASQIISSYLAWYQQKPGQAPRLLIYDTSNRATGIPARFSGSGSGTDFTLTISSLEPEDFAVYYCQVRSNWPPLTFGGGTKVEIK
ELISA: 7.55

B15: 12-27 (antibody, V domains shown)
VH: QVQLVESGGGVVQPGRSLRLSCAASGFSFGGYGMHWVRQAPGKGLEWVAVISYDGSTKYYADSVKGRFTISRDNSKNTLYLQMNSLRAEDTAVYYCARPRGGSYKDAFDIWGQGTLVTVSS
VL: EIVLTQSPATLSLSPGERATLSCRASDTVSSYLAWYQQKPGQAPRLLIYDTSNRATGIPARFSGSGSGTDFTLTISSLEPEDFAVYYCQQRASWPLSFGGGTKVEIK
ELISA: 8.83

B16: 12-16 (antibody, V domains shown)
VH: QVQLVESGGGVVQPGRSLRLSCAASGFIFRSYAMHWVRQAPGKGLEWVAVISYDGSSKYYADSVKGRFTISRDNSKNTLYLQMNSLRAEDTAVYYCARTLGGSYFAAFDIWGQGTLVTVSS
VL: EIVLTQSPATLSLSPGERATLSCRASQSLDSYLAWYQQKPGQAPRLLIYDVSNRATGIPARFSGSGSGTDFTLTISSLEPEDFAVYYCQQRRGWPPVTFGGGTKVEIK
ELISA: 17

B17: 12-24 (antibody, V domains shown)
VH: QVQLVESGGGVVQPGRSLRLSCAASGFTFSNFPMHWVRQAPGKGLEWVAVISYDGNNKYYADSVKGRFTISRDNSKNTLYLQMNSLRAEDTAVYYCAKDHGDHYFDYWGQGTLVTVSS
VL: EIVLTQSPATLSLSPGERATLSCRASQSFGDSLAWYQQKPGQAPRLLIYDASNRATGIPARFSGSGSGTDFTLTISSLEPEDFAVYYCQQRSIPITFGGGTKVEIK
ELISA: 9.63

B18: 12-26 (antibody, V domains shown)
VH: QVQLVESGGGVVQPGRSLRLSCAASGFTFSNYAMHWVRQAPGKGLEWVAVISYDGSNEYYADSEKGRFTISRDNSKNTLYLQMNSLRAEDTAVYYCAKSGSGSYFSPFDYWGQGTLVTVSS
VL: EIVLTQSPATLSLSPGERATLSCRASQSVSTSLAWYQQKPGQAPRLLIYDISNRATGIPARFSGSGSGTDFTLTISSLEPEDFAVYYCQQRRSGLTFGGGTKVEIK
ELISA: 9.05

B19: 12-37 (antibody, V domains shown)
VH: QVQLVESGGGVVQPGRSLRFSCAGTGFTFSSYAMHWVRQAPGKGLEWVAVISYDGSNQYYADSVKGRFTISRDNSKNTLYLQMNSLRAEDTAVYYCARSRSGSYLAYFDYWGQGTLVTVSS
VL: EIELTQSPATLSLSPGERATLSCRASESVSESLAWYQQKPGQAPRLLIYDASNRATGIPARFSGSGSGTDFTLTISSLEPEDFAVYYCQQRTHGVTFGGGTKVEIK
ELISA: 5.5

B20: 12-21 (antibody, V domains shown)
VH: QVQLVESGGGVVQPGRSLRLSCAASGFSFGGYGMHWVRQAPGKGLEWVAVISYDGSNKYYADSVKGRFTISRDNSKNTLYLQMNSLRAEDTAVYYCARPKGGNYWNAFDIWGQGTLVTVSS
VL: EIVLTQSPATLSLSPGERATLSCRASQSVNSDLAWYQQKPGQAPRLLIYDASNRATGIPARFSGSGSGTDFTLTISSLEPEDFAVYYCQERSLFGGGTKVEIK
ELISA: 11.7

B21: 12-31 (antibody, V domains shown)
VH: QVQLVESGGGVVQPGRSLRLSCAASGFTFSYYTMHWVRQAPGKGLEWVAVTSYDGSNKYYADSVKGRFTISRDNSKNTLYLQMNSLRAEDTAVYYCARPLGGSYFAAFDIWGQGTLVTVSS
VL: EIVLTQSPATLSLSPGERATLSCRASQSIGSYLAWYQQKPGQAPRLLIYDVSNRATGIPARFSGSGSGTDFTLTISSLEPEDFAVYYCQQRDSFTFGGGTKVEIK
ELISA: 7.01

B22: 12-32 (antibody, V domains shown)
VH: QVQLVESGGGVVQPGRSLRLSCAASGFTFGTYAMHWVRQAPGKGLEWVAVISYDGNNKYYADSVKGRFTISRDNSKNTLYLQMNSLRAEDTAVYYCAKTMSGSYFSAFDIWGQGTLVTVSS
VL: EIVLTQSPATLSLSPGERATLSCRASQSIGSYLAWYQQKPGQAPRLLIYDVSNRATGIPARFSGSGSGTDFTLTISSLEPEDFAVYYCQQRDSFTFGGGTKVEIK
ELISA: 6.88
